Experimental data: article PMC5861439 (Nucleic Acids Research, 2017)

Target: Saccharomyces cerevisiae Asf1 (2–169) (Saccharomyces cerevisiae, UniProt P32447 2-169)
Experiment: ITC

Saccharomyces cerevisiae Asf1 (2–169), sequence (P32447 2-169): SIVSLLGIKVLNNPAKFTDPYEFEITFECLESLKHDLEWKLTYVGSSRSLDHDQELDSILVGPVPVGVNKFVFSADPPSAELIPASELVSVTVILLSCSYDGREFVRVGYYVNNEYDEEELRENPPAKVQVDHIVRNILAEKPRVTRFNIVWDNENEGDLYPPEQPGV

Work on LAITMLKPRKKAKAL [Rtt109^419–433 peptide] yielded a Kd of 7.78 ± 1.23 µM.
